In publication PMC5605996:

Molecular target: GST fusion of the SET domain of Trithorax, GST-TrxSET (Drosophila)
Assay: pull-down; 1 μg GST-E(z)SET or GST-TrxSET immobilised on GSH-agarose, mixed 2 h at 4 °C with pre-cleared reticulocyte lysate holding 35S-Asx or its deletion fragments; washes with 0.6 M NaCl, pH 7.9; SDS-PAGE and autoradiography, densitometry relative to GST

Chain of GST fusion of the SET domain of Trithorax, GST-TrxSET (Drosophila) (P20659 3583-3709): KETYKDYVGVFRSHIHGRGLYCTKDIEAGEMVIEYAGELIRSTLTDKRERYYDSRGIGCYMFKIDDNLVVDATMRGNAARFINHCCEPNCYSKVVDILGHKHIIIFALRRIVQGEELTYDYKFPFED

- fold weaker than the Asx-E(z)(SET) interaction: 5 fold
Substance: full-length Additional sex combs (Asx), 35S-methionine-labelled, in vitro translated, A(1-1669) (from UniProt Q9V727 1-1669) (natural protein)
